# From the supplement of paper PMC9732359
# ± gives the uncertainty stated by the source.
# Assay: protein stability index of a GFP-peptide fusion (yeast GPS) (PSI 1-4); higher = more stable; sorted into four equal gates, so the index is relative within each strain
# Outline: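 Tiled 17-residue yeast protein peptides were fused downstream of GFP in a plasmid that also expresses Cherry, and the pooled library was carried in yeast. Mid-log cultures in leucine-free medium were sorted into four equal gates by GFP/Cherry fluorescence ratio, and plasmids from each gate were PCR-amplified and Illumina-sequenced, with reads assigned to strains by barcodes. The protein stability index for each peptide was each gate's read frequency times its gate number, summed.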
Sequence,protein stability index (doa10∆),protein stability index (pdr5∆),protein stability index (san1∆),protein stability index (ubr1∆)
LNLKFKEKWPSLELQSF [YML103C/NUP188],2.72 ± 0.097,2.54 ± 0.14,1.92 ± 0.11,2.05 ± 0.19
EPNLAAQQDSTNVRLYS [ECM29],2.88 ± 0.11,2.9 ± 0.063,2.81 ± 0.089,2.37 ± 0.074
RQPVEGRSRDGGLRFGE [RPB2],2.86 ± 0.29,–,2.81 ± 0.17,–
DGFNKTFHDELNLKFKE [YML103C/NUP188],2.41 ± 0.066,2.38 ± 0.072,2.69 ± 0.087,2.65 ± 0.054
VSIDIEEPQLDLLDDVL [MTW1],2.62 ± 0.094,3.09 ± 0.067,3.24 ± 0.045,3.19 ± 0.048
RMPMDFKGVIVKIVDKD [PRE1],2.25 ± 0.17,3.11 ± 0.18,3.19 ± 0.22,2.37 ± 0.056
GVPDDKWEQTYKKPTGG [FAS1],3.38 ± 0.07,3.29 ± 0.1,3.2 ± 0.093,3.09 ± 0.069
KPENKTDKVSLSQPVSA [SIR4],2.81 ± 0.055,2.68 ± 0.052,2.49 ± 0.063,2.14 ± 0.037
GNYVIIIGHNPDENKTR [RPL2A],2.97 ± 0.088,3.32 ± 0.093,3.12 ± 0.074,2.87 ± 0.082
LHYCVSCAIHARIVRVR [RPS26A],1.17 ± 0.066,1.2 ± 0.083,1.15 ± 0.13,1.2 ± 0.12
TKTRKHRGHVSAGKGRI [RPL28],1.91 ± 0.06,2.21 ± 0.062,2.09 ± 0.12,2.4 ± 0.062
EVSCKLLETITYVLNTW [YML103C/NUP188],2.15 ± 0.068,2.35 ± 0.073,2.07 ± 0.11,2.11 ± 0.082
RNFSLAIIDKNTGLTFK [PRE4],3.14 ± 0.068,3.07 ± 0.071,3.14 ± 0.043,3.18 ± 0.058
ERLVEFSNVNELQEKNV [YIL149C/MLP2],3.31 ± 0.23,3.36 ± 0.24,–,3.1 ± 0.2
LHDEYLVSMRYPEDKKT [RPN3],2.81 ± 0.26,–,–,–
TSIHSTISILAAPSGNY [RRP43],1.59 ± 0.038,1.85 ± 0.033,1.97 ± 0.05,1.67 ± 0.029
VTNNVEEGEFIIDLYSL [TAF14],3.38 ± 0.085,3.48 ± 0.083,3.58 ± 0.057,3.54 ± 0.06
VELIESKINELSYYVEE [SMC4],3.29 ± 0.12,3.42 ± 0.082,3.28 ± 0.1,3.4 ± 0.083
QNPMRDLKIEKLVLNIS [RPL11A],3.04 ± 0.076,3.09 ± 0.08,3.33 ± 0.082,2.84 ± 0.11
QEMIDILETIFRGARKN [DIB1],2.83 ± 0.14,–,2.77 ± 0.17,–
VLAAQSIGEPATQMTLN [RPO21],2.69 ± 0.055,3 ± 0.051,2.87 ± 0.042,2.91 ± 0.048
KYSDILLKKATKPEVAS [CDC53],2.32 ± 0.097,2.23 ± 0.12,2.47 ± 0.15,2.47 ± 0.17
SGWTPFHIACSVGNLEV [NAS6],1.8 ± 0.095,1.89 ± 0.074,1.68 ± 0.1,1.94 ± 0.11
TILYLNVFHGLCAGANN [IRR1],1.3 ± 0.071,1.64 ± 0.083,1.39 ± 0.087,1.34 ± 0.076
ETPSRLLLSPDQWYCID [ITC1],2.8 ± 0.062,3.21 ± 0.085,3.16 ± 0.075,2.81 ± 0.051
TKRESLNARMFLKYYGA [SIR2],2.98 ± 0.11,2.9 ± 0.098,3.14 ± 0.11,2.6 ± 0.1
LVNRKPIPFEFQAVIQK [SNF2],2.65 ± 0.079,2.73 ± 0.057,2.71 ± 0.048,2.83 ± 0.038

Sequence,protein stability index (doa10∆),protein stability index (pdr5∆),protein stability index (san1∆),protein stability index (ubr1∆)
EATLESKLKEEEAALLI [ESC2],2.86 ± 0.067,3.05 ± 0.058,2.88 ± 0.038,2.91 ± 0.05
SLDRVAWRTLVGVSHTN [CYT1],1.3 ± 0.053,1.31 ± 0.048,1.34 ± 0.11,1.25 ± 0.043
FTDENTIVLSLNVKCTR [RPC40],3.44 ± 0.14,3.61 ± 0.091,2.96 ± 0.17,3.46 ± 0.091
RIENPEKYAAAAPAATS [RPP0],2.95 ± 0.085,3.22 ± 0.11,2.71 ± 0.094,3.16 ± 0.057
IIMQADLALKMGVPIYG [FAS2],1.63 ± 0.12,2.04 ± 0.068,1.79 ± 0.069,2.11 ± 0.044
RVLITQRHIAVGKQIVN [RPS9A],2.22 ± 0.072,1.92 ± 0.087,2.83 ± 0.12,2.59 ± 0.15
NSKMPTRFPPAVFYTPK [PRP8],2.76 ± 0.056,3.09 ± 0.068,2.94 ± 0.054,2.93 ± 0.061
PTNCPLRQFKTCPVEVI [BRR2],3 ± 0.093,3.17 ± 0.09,3.33 ± 0.063,2.9 ± 0.066
MDNKTPVTLAKVIKVLG [RPS28A],1.16 ± 0.12,1.77 ± 0.22,1.16 ± 0.27,2.55 ± 0.27
SGKRKPTKAAQRARDQD [GAL11],–,3.65 ± 0.16,3.25 ± 0.28,3.58 ± 0.15
NESSLALEFVSLLLSSV [SRB4],1.18 ± 0.045,1.33 ± 0.048,1.53 ± 0.09,1.6 ± 0.05
NIVKLCFVHRYKDVSDL [IRR1],2.68 ± 0.084,2.71 ± 0.059,2.87 ± 0.055,2.89 ± 0.058
SLRSNVVVAETSPEKKD [YAR002W/NUP60],2.23 ± 0.05,2.63 ± 0.063,2.21 ± 0.069,2.4 ± 0.061
KGGKGLGKGGAKRHRKI [HHF1],3.7 ± 0.22,3.59 ± 0.19,3.65 ± 0.067,3.59 ± 0.053
DEPMTTFYKCVNCGHRW [RPC11],2.84 ± 0.16,2.5 ± 0.082,2.17 ± 0.15,2.82 ± 0.086
REISNFSKGDADVLVDR [SRP72],3.22 ± 0.098,3.19 ± 0.096,3.03 ± 0.097,3.06 ± 0.079
QDEAELVEEKTPGLTFN [RPC82],–,3.62 ± 0.29,–,3.35 ± 0.12
DGLLEYLEDIIGTANYK [SMC4],2.38 ± 0.072,2.53 ± 0.055,2.6 ± 0.078,2.36 ± 0.054
TARRNVSGDAAALFRLH [SWI3],2.43 ± 0.093,2.98 ± 0.099,2.78 ± 0.086,1.95 ± 0.063
DDPSKVRLLCRSDGMGN [YLR335W/NUP2],2.94 ± 0.26,3.66 ± 0.19,2.98 ± 0.16,2.96 ± 0.15
YKIPKVMKDIYKVENVT [ESC2],–,3.52 ± 0.16,–,–
SNIPTLIEKLQGFSKDT [YDL116W/NUP84],3.22 ± 0.1,3.23 ± 0.088,3.01 ± 0.05,3.17 ± 0.073
NETNDKKRNPSKQNGSK [PRP28],3.21 ± 0.096,3.15 ± 0.066,3.02 ± 0.051,3.23 ± 0.039
EEQKSSDTSKPAFTFGA [YJL041W/NSP1],3.25 ± 0.07,3.15 ± 0.06,2.89 ± 0.059,3.23 ± 0.05
VANYSAMANAPGNNIPY [GAL11],2.88 ± 0.16,3.25 ± 0.18,2.7 ± 0.17,2.76 ± 0.16
KRNGDEVYTLVDSQGLP [ARP7],3.35 ± 0.17,3.34 ± 0.11,2.98 ± 0.14,3.21 ± 0.097
